B1: HDV Ribozyme (parent)
chain: GGCCGGCAUGGUCCCAGCCUCCUCGCUGGCGCCGGCUGGGCAACAUUCCGAGGGGACCGUCCCCUCGGUAAUGGCGAAUGGGACCCA

Variants of: B1
Test: self-cleavage, relative activity (ratio to wild type); higher = more cleavage; co-transcriptional

Variant	self-cleavage
GGACGGCAUGGUCCCAGCCUCCUCGCUGGCGCCGGCUGGGCAACAUUCCCAGGGGACCGUCCCCUCGGUAAUGGCGAAUGGGACCCA	0.572
GGACGGCAUGGUCCCAGCCUCCUCGCUGCCGCCGGCUGGGCAACAUUCCGAGGGGACCGUCCCCUCGGUAAUGGCGAAUGGGACCCA	0
GGACGGCAUGGUCCCAGCCUCCUCGCUGUCGCCGGCUGGGCAACAUUCCGAGGGGACCGUCCCCUCGGUAAUGGCGAAUGGGACCCA	0.0316
GGACGUCAUGGUCCCAGCCUCCUCGCUGGCGCCGGCUGGGCAACAUUCCGAGGGGACCGUCCCCUCGGUAAUGGCGAAUGGGACCCA	0.0492
GGACGGCAUGGUCCCAGCCACCUCGCUGGCGCCGGCUGGGCAACAUUCCGAGGGGACCGUCCCCUCGGUAAUGGCGAAUGGGACCCA	0.0683
GGACGGCAUGGUCCCAGCCGCCUCGCUGGCGCCGGCUGGGCAACAUUCCGAGGGGACCGUCCCCUCGGUAAUGGCGAAUGGGACCCA	0.0163
GGACGGCAUGGUCCCAGCCUCCUCGCUGGCGCCGGCUGGGCAACAUUCCGAGGGGACCGUCCCCUCGGUAAUUGCGAAUGGGACCCA	0.111
GGACGGCAUGGUCCCAGCCUCCUCGCUGGCGCCGGCUGGGCAACAUUCCGAGGGGACCGUCCCCUCGGUAAUGGCGAAUUGGACCCA	0.0893
GGACGGCAUGGUCCCAGCCUCCUCGCUGGCGCCGGCUGAGCAACAUUCCGAGGGGACCGUCCCCUCGGUAAUGGCGAAUGGGACCCA	0.067
GGACGGCAUGGUCCCAGCCUCCUCGCUGGCGCCGGCUGGGCAACAUUCCGAGGGGACCGUCCCCGCGGUAAUGGCGAAUGGGACCCA	0.718
GGACGGCAUGGUCCCAGCCUCCUCGCUGGCGCCGGCUGGGCAACAUUCCGAGGGGACCGUCCCCUCGGUAAUGGCGAAUGAGACCCA	0.054
GGACGGCAUGGUCCCAGCCUCCUCGCUGGCGCCGGCUGGGCAACAUUCCGAGGGGACCGUCCCCUCGGUAAUGGCGAAUGCGACCCA	0.0158
GGACGGCAUGGUCCCAGCCUCCUCGCUGGCGCCGGCUGGGCAACAUUCCGAGGGGACCGUCCCCUCGGGAAUGGCGAAUGGGACCCA	0.567
GGACGGCAUGGUCCCAGCCUCCUCGCUGGCGCCGGCUGGGCAACAUUCCGAGGGGACCGUCCCCUCGGAAAUGGCGAAUGGGACCCA	0.406
GGACGGCAUGAUCCCAGCCUCCUCGCUGGCGCCGGCUGGGCAACAUUCCGAGGGGACCGUCCCCUCGGUAAUGGCGAAUGGGACCCA	0.236
GGACGGCAUGCUCCCAGCCUCCUCGCUGGCGCCGGCUGGGCAACAUUCCGAGGGGACCGUCCCCUCGGUAAUGGCGAAUGGGACCCA	0.0963
GGACGGCAUGGUCCCAGCCUCCUCGCUGGCGCCGGCUGGACAACAUUCCGAGGGGACCGUCCCCUCGGUAAUGGCGAAUGGGACCCA	0.412
GGACGGCAUGGUCCCAGCCUCCUCGCUGGCGCCUGCUGGGCAACAUUCCGAGGGGACCGUCCCCUCGGUAAUGGCGAAUGGGACCCA	0.109
GGACGGCAUGGUCCCAGCCUCCUCGCUGGCGCCCGCUGGGCAACAUUCCGAGGGGACCGUCCCCUCGGUAAUGGCGAAUGGGACCCA	0.0903
GGACGGCAUGGUCCCAGCCUCCUCGCUGGCGCCGGCUGGGCAACAUUCCGAGGAGACCGUCCCCUCGGUAAUGGCGAAUGGGACCCA	0.369
GGACGGCAUGGUCCCAGCCUCCUCGCUGGCGCCGGCUGGGCAACAGUCCGAGGGGACCGUCCCCUCGGUAAUGGCGAAUGGGACCCA	0.026
GGACGGCAUGGUCCCAGCCUCCUCGCUGGCGCCGGCUGGGCAACAUUCCGAGGGGACCGUCCCCUCGGUAAUGGCGAAUGGGACGCA	0.623

Variant	self-cleavage
GGGCGGCAUGGUCCCAGCCUCCUCGCUGGCGCCGGCUGGGCUACAUUCCGAGGGGACCGUCCCCUCGGUAAUGGCGAAUGGGACCCA	0.116
GGGCGGCAUGGUCCCAGCCUCCUCGCUGGCGCCGGCUGGGCGACAUUCCGAGGGGACCGUCCCCUCGGUAAUGGCGAAUGGGACCCA	0.138
GGACGGCAUGGUCCCAGCCUCCUCCCUGGCGCCGGCUGGGCAACAUUCCGAGGGGACCGUCCCCUCGGUAAUGGCGAAUGGGACCCA	0.0198
GGACGGCAUGGUCCCAGCCUCCUCGCUGGCGCCGGCUGGGCAACAUUCCGAGGGGACCGCCCCCUCGGUAAUGGCGAAUGGGACCCA	0.499
GGACGGCAUGGUCCCAGCCUCCUCGCUGGCUCCGGCUGGGCAACAUUCCGAGGGGACCGUCCCCUCGGUAAUGGCGAAUGGGACCCA	0.0339
GGACGGCAUGGUCCCAGCCUCCUCGCUGGCGCCGGCUCGGCAACAUUCCGAGGGGACCGUCCCCUCGGUAAUGGCGAAUGGGACCCA	0
GGACGGCAUGGUCCCAGCCUCCUCGCUGGCGCCGGCUGGGCAACAUUCCGAGGGGACCGUCCCCUCUGUAAUGGCGAAUGGGACCCA	0.71
GGACGGCAUGGUCCCAGCCUCCUCGCUGGCGCCGGCUGGGCAACAUUCCGAGGGGACCGUCCCCUCCGUAAUGGCGAAUGGGACCCA	0.61
GGGCGGCAUGGUCCCAGCCUCCUCGCUGGCGCCGGCUGGGCAACAUUCCGAGGGGACCGUCCCCUCGGUAAUGGCGAAUGGGACCCA	0.753
GGACGGCAUGGUCCCAGCCUCCUCGCCGGCGCCGGCUGGGCAACAUUCCGAGGGGACCGUCCCCUCGGUAAUGGCGAAUGGGACCCA	0.217
GGACGGCAUGGUCCCAGCCUCCUCGCUGGCGCCGGCUGGGCAACAUUCCGAGGGGACCGUCCCCUCGGUAAUGGCGAAUGGGACCAA	0.535
GGACGGCAUGGUCCCAGCCUCCUCGCUGGCGCCGGCUGGGCAACAUUCCGAGGGGACCGUCCCCUCGGUAAUGGCGAAUGGGACCUA	0.745
GGACGGCAUGGUCCCAGCCUCCUCGCUGGCGCCGGCUGGGCAACAUUCCGAGGGGACCGUCCCCUCGGUAAUGGCGAAUGGGACCGA	0.745
GGACGGCAUGGUCCCAGCCUCCUCGCUGGCGCCGGCUGGGCAACAUGCCGAGGGGACCGUCCCCUCGGUAAUGGCGAAUGGGACCCA	0.237
GGACGGCAUGGUCCCAGCCUCCUCGCUGGCGCCGGCUGGGCAACAUACCGAGGGGACCGUCCCCUCGGUAAUGGCGAAUGGGACCCA	0.429
GGGCGGCAUGGUCCCAGCCUCCUCGCUGGCGCCGGCUGGGCAACGUUCCGAGGGGACCGUCCCCUCGGUAAUGGCGAAUGGGACCCA	0.816
GGGCGGCAUGGUCCCAGCCUCCUCGCUGGCGCCGGCUGGGCAACUUUCCGAGGGGACCGUCCCCUCGGUAAUGGCGAAUGGGACCCA	0.299
GGGCGGCAUGGUCCCAGCCUCCUCGCUGGCGCCGGCUGGGCAACCUUCCGAGGGGACCGUCCCCUCGGUAAUGGCGAAUGGGACCCA	0.113
GGACGGCAUGGUCCCAGCCUCCUCGCUGGCGCCGGCUGGGCAACAUUCCGAGGGGACCGUCCCCUCGGUAAUGGCUAAUGGGACCCA	0.773
GGACGGCAUGGUCCCAGCCUCCUCGCUGGCGCCGGCUGGGCAACAUUCCGAGGGGACCGUCCCCUCGGUAAUGGCCAAUGGGACCCA	0.604
GGACGGCAUGGUCCCAGCCUCCUCGCUGGCGCCGGCGGGGCAACAUUCCGAGGGGACCGUCCCCUCGGUAAUGGCGAAUGGGACCCA	0.0685
GGACGGCAUGGUCCCAGCCUCCUCGCUGGCGCCGGCCGGGCAACAUUCCGAGGGGACCGUCCCCUCGGUAAUGGCGAAUGGGACCCA	0.661

Variant	self-cleavage
GGACGGCAUGGUCCCAGCCUCCCCGCUGGCGCCGGCUGGGCAACAUUCCGAGGGGACCGUCCCCUCGGUAAUGGCGAAUGGGACCCA	0.46
GGACGGCAUGGUCCCAGCCUCCUCGCUGGCGCCGGCUGGGCAACAUUCCGAGGGGACCGUCCCCUCGGUAAUGGCGAAUGGUACCCA	0.0831
GGACGGCAUGGUCCCAGCCUCCUCGCUGGCGCCGGCUGGGCAACAUUCCGAGGGGACCGUCCCCUCGGUAAUGGCGAAUGGCACCCA	0.056
GGACGGCAUGGUCCCAGCCUCCUCGCUGGCGCCGACUGGGCAACAUUCCGAGGGGACCGUCCCCUCGGUAAUGGCGAAUGGGACCCA	0.859
GGACGGCAUGGUCCCAGCCUCCUCGCUGGCGCCGUCUGGGCAACAUUCCGAGGGGACCGUCCCCUCGGUAAUGGCGAAUGGGACCCA	1.14
GGACGGCAUGGCCCCAGCCUCCUCGCUGGCGCCGGCUGGGCAACAUUCCGAGGGGACCGUCCCCUCGGUAAUGGCGAAUGGGACCCA	0.0615
GGGCGGCAUGGUCCCAGCCUCCUCGCUGGCGCCGGCUGGGCACCAUUCCGAGGGGACCGUCCCCUCGGUAAUGGCGAAUGGGACCCA	0.261
GGGCGGCAUGGUCCCAGCCUCCUCGCUGGCGCCGGCUGGGCAUCAUUCCGAGGGGACCGUCCCCUCGGUAAUGGCGAAUGGGACCCA	0.233
GGACUGCAUGGUCCCAGCCUCCUCGCUGGCGCCGGCUGGGCAACAUUCCGAGGGGACCGUCCCCUCGGUAAUGGCGAAUGGGACCCA	0.00831
GGACGGCAUGGUCCCAGCCUCCUCGCUGGCGCCGGCUGGGCAACAUUCCGAGCGGACCGUCCCCUCGGUAAUGGCGAAUGGGACCCA	0.635
GGACGGCAUGGUCCCAGCCUCCUCGCUGGCGCCGGCUGGGCAACAUUCCGAGUGGACCGUCCCCUCGGUAAUGGCGAAUGGGACCCA	0.527
GGACGGCAUCGUCCCAGCCUCCUCGCUGGCGCCGGCUGGGCAACAUUCCGAGGGGACCGUCCCCUCGGUAAUGGCGAAUGGGACCCA	0.504
GGACGGCAUAGUCCCAGCCUCCUCGCUGGCGCCGGCUGGGCAACAUUCCGAGGGGACCGUCCCCUCGGUAAUGGCGAAUGGGACCCA	0.335
GGACGGCAUUGUCCCAGCCUCCUCGCUGGCGCCGGCUGGGCAACAUUCCGAGGGGACCGUCCCCUCGGUAAUGGCGAAUGGGACCCA	0.23
GGACGGCAUGGUCCCAGCCUCCUCGCUGGCGCCGGCUGGGCAACAUUCCGAGGGGACCGUCCCCUCGGUAAAGGCGAAUGGGACCCA	0.07
GGGCGGCAUGGUCCCCGCCUCCUCGCUGGCGCCGGCUGGGCAACAUUCCGAGGGGACCGUCCCCUCGGUAAUGGCGAAUGGGACCCA	0.208
GGGCGGCAUGGUCCCUGCCUCCUCGCUGGCGCCGGCUGGGCAACAUUCCGAGGGGACCGUCCCCUCGGUAAUGGCGAAUGGGACCCA	0.655
GGACGGCAUGGUCCCAACCUCCUCGCUGGCGCCGGCUGGGCAACAUUCCGAGGGGACCGUCCCCUCGGUAAUGGCGAAUGGGACCCA	0.104
GGACGGCAUGGUCCCAUCCUCCUCGCUGGCGCCGGCUGGGCAACAUUCCGAGGGGACCGUCCCCUCGGUAAUGGCGAAUGGGACCCA	0.0665
GGACGGCAAGGUCCCAGCCUCCUCGCUGGCGCCGGCUGGGCAACAUUCCGAGGGGACCGUCCCCUCGGUAAUGGCGAAUGGGACCCA	0.657

Source: the RNAGym collection of RNA variant scans (doi:10.7554/elife.80360)
